Test results reported in patent publication US20250163145A1 (SHIONOGI, published 2025).
Numbering of substitutions follows the chain as printed. In names and notes the source's numbering stands. Where no end group is shown, it is not given here.

B1: h15H11-44 (antibody, human IgG4 S228P, kappa, V domains shown)
VH: QVQLVQSGSELKKPGASVKVSCKASGYTFTDYNMHWVRQAPGRSLEWMGRINPKNGVILSNEKFKDRFVFSLDTSVSTAYLQISSLKAEDTAVYYCAPSYYGGDDDAYWGQGTLVTVSS
VL: DIVLTQSPASLAVSPGQRATITCRASDSVDNYGISFLNWFQQKPGQPPKLLIYAASSQGSGVPARFSGSGSGTDFTLTINPMEAEDTANYYCQQSKEFPWTFGGGTKVEIKR
notes: hIgG4Pro/hIgK
B2: h15H11-45 (antibody, human IgG4 S228P, kappa, V domains shown)
VH: B1 VH
VL: B1 VL with E85A
notes: hIgG4Pro/hIgK
B3: h15H11-46 (antibody, human IgG4 S228P, kappa, V domains shown)
VH: B1 VH
VL: B1 VL with E85Q
notes: hIgG4Pro/hIgK
B4: humanized 15H11 CDR graft IGKV4-1 / IGHV7-4-1 (R94P) (antibody, human IgG4 S228P, kappa, V domains shown)
VH: B1 VH with R43Q, S44G, L59N, D104N, D105T
VL: DIVMTQSPDSLAVSLGERATINCRASESVDNYGISFMNWYQQKPGQPPKLLIYAASSQGSGVPDRFSGSGSGTDFTLTISSLQAEDVAVYYCQQSKEFPWTFGGGTKVEIKR
notes: hIgG4Pro/hIgK
B5: humanized 15H11 CDR graft IGKV7-3 / IGHV1-2 (R94P) (antibody, human IgG4 S228P, kappa, V domains shown)
VH: QVQLVQSGAEVKKPGASVKVSCKASGYTFTDYNMHWVRQAPGQGLEWMGRINPKNGVINSNEKFKDRVTMTRDTSISTAYMELSRLRSDDTAVYYCAPSYYGGNTDAYWGQGTLVTVSS
VL: B1 VL with D27E, L37M, F40Y, M82V, E85N
notes: hIgG4Pro/hIgK
B6: humanized 15H11 CDR graft IGKV7-3 / IGHV1-3 (R94P) (antibody, human IgG4 S228P, kappa, V domains shown)
VH: B5 VH with G44R, M70I, I76A, R85S, D89E
VL: B1 VL with D27E, L37M, F40Y, M82V, E85N
notes: hIgG4Pro/hIgK
B7: humanized 15H11 CDR graft IGKV7-3 / IGHV1-2 (antibody, human IgG4 S228P, kappa, V domains shown)
VH: B5 VH with P98R
VL: B1 VL with D27E, L37M, F40Y, M82V, E85N
notes: hIgG4Pro/hIgK
B8: humanized 15H11 CDR graft IGKV7-3 / IGHV1-46 (R94P) (antibody, human IgG4 S228P, kappa, V domains shown)
VH: B5 VH with I76T, A79V, R85S, D89E
VL: B1 VL with D27E, L37M, F40Y, M82V, E85N
notes: hIgG4Pro/hIgK
B9: humanized 15H11 CDR graft IGKV7-3 / IGHV1-18 (R94P) (antibody, human IgG4 S228P, kappa, V domains shown)
VH: B5 VH with R72T, I76T, S84R, R85S
VL: B1 VL with D27E, L37M, F40Y, M82V, E85N
notes: hIgG4Pro/hIgK
B10: humanized 15H11 CDR graft IGKV4-1 / IGHV1-2 (R94P) (antibody, human IgG4 S228P, kappa, V domains shown)
VH: B5 VH
VL: B4 VL
notes: hIgG4Pro/hIgK
B11: humanized 15H11 CDR graft IGKV4-1 / IGHV1-3 (R94P) (antibody, human IgG4 S228P, kappa, V domains shown)
VH: B5 VH with G44R, M70I, I76A, R85S, D89E
VL: B4 VL
notes: hIgG4Pro/hIgK
B12: humanized 15H11 CDR graft IGKV4-1 / IGHV1-18 (R94P) (antibody, human IgG4 S228P, kappa, V domains shown)
VH: B5 VH with R72T, I76T, S84R, R85S
VL: B4 VL
notes: hIgG4Pro/hIgK
B13: humanized 15H11 CDR graft IGKV4-1 / IGHV1-46 (R94P) (antibody, human IgG4 S228P, kappa, V domains shown)
VH: B5 VH with I76T, A79V, R85S, D89E
VL: B4 VL
notes: hIgG4Pro/hIgK
B14: humanized 15H11 CDR graft IGKV4-1 / IGHV1-2 (antibody, human IgG4 S228P, kappa, V domains shown)
VH: B5 VH with P98R
VL: B4 VL
notes: hIgG4Pro/hIgK
B15: h15H11-64 (antibody, human IgG4 S228P, kappa)
heavy: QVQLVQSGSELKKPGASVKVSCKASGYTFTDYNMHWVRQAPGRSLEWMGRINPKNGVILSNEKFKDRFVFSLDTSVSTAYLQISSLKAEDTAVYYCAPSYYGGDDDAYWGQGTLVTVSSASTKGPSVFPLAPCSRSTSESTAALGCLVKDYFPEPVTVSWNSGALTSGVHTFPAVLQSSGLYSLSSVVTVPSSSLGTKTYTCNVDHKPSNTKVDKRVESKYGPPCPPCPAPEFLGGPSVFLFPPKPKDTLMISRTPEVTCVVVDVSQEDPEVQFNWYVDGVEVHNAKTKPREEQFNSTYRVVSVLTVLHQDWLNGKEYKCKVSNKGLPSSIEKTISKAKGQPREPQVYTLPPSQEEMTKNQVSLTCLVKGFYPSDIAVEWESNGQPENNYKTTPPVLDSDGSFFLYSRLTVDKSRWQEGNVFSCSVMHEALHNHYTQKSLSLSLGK
light: DIVMTQSPDSLAVSLGERATINCRASDSVDNYGISFLNWFQQKPGQPPKLLIYAASSQGSGVPARFSGSGSGTDFTLTISSMQAEDVAVYYCQQSKEFPWTFGGGTKVEIKRTVAAPSVFIFPPSDEQLKSGTASVVCLLNNFYPREAKVQWKVDNALQSGNSQESVTEQDSKDSTYSLSSTLTLSKADYEKHKVYACEVTHQGLSSPVTKSFNRGEC
notes: hIgG4Pro/hIgK
B16: h15H11-67 (antibody, human IgG4 S228P, kappa)
heavy: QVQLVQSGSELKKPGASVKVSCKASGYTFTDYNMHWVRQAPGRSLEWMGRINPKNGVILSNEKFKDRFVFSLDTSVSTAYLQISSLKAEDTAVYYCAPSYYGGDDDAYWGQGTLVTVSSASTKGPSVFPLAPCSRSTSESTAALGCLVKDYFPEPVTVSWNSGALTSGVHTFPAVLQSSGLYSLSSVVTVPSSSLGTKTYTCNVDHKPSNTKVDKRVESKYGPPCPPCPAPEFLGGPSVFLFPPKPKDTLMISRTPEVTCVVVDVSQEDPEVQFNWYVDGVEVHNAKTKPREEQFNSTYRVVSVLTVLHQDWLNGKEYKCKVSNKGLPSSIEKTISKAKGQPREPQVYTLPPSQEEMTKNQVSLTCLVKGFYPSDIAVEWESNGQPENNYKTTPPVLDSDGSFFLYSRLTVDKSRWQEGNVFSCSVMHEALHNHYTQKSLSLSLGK
light: B15 light with M4L, D9A, E17Q
notes: hIgG4Pro/hIgK
B17: h15H11-66 (antibody, human IgG4 S228P, kappa)
heavy: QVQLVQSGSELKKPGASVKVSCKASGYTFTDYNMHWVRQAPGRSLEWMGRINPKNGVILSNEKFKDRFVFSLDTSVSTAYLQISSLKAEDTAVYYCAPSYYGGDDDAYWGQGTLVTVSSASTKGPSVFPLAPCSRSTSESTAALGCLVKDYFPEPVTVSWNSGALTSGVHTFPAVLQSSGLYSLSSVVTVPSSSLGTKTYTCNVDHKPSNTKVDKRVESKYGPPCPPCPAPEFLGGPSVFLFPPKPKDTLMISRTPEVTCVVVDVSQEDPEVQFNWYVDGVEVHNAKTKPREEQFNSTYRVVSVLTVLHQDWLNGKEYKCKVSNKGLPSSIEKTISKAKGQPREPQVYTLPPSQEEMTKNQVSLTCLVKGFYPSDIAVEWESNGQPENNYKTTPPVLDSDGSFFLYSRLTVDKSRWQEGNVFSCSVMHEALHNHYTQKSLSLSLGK
light: B15 light with M4L, D9A
notes: hIgG4Pro/hIgK
B18: h15H11-55 (antibody, human IgG4 S228P, kappa, V domains shown)
VH: B1 VH
VL: B4 VL with Y40F, L82M, V89M
notes: hIgG4Pro/hIgK
B19: h15H11-60 (antibody, human IgG4 S228P, kappa, V domains shown)
VH: B1 VH
VL: B4 VL with E27D, M37L, Y40F, L82M
notes: hIgG4Pro/hIgK
B20: h15H11-57 (antibody, human IgG4 S228P, kappa, V domains shown)
VH: B1 VH
VL: B4 VL with Y40F, L82M
notes: hIgG4Pro/hIgK
B21: h15H11-62 (antibody, human IgG4 S228P, kappa, V domains shown)
VH: B1 VH
VL: B4 VL with E27D, M37L, Y40F, L82M, Q83E
notes: hIgG4Pro/hIgK
B22: h15H11-63 (antibody, human IgG4 S228P, kappa, V domains shown)
VH: B1 VH
VL: B4 VL with E27D, M37L, Y40F, L82M, V87T
notes: hIgG4Pro/hIgK
B23: h15H11-59 (antibody, human IgG4 S228P, kappa, V domains shown)
VH: B1 VH
VL: B4 VL with E27D, M37L, Y40F, S80N, S81P, L82M
notes: hIgG4Pro/hIgK
B24: h15H11-65 (antibody, human IgG4 S228P, kappa, V domains shown)
VH: B1 VH
VL: B4 VL with E27D, M37L, Y40F, D64A, L82M, V89M
notes: hIgG4Pro/hIgK
B25: h15H11-58 (antibody, human IgG4 S228P, kappa, V domains shown)
VH: B1 VH
VL: B4 VL with E27D, M37L, Y40F, L82M, V89M
notes: hIgG4Pro/hIgK
B26: h15H11-56 (antibody, human IgG4 S228P, kappa, V domains shown)
VH: B1 VH
VL: B4 VL with Y40F, S80N, S81P, L82M
notes: hIgG4Pro/hIgK
B27: h15H11-61 (antibody, human IgG4 S228P, kappa, V domains shown)
VH: B1 VH
VL: B1 VL with L4M, A9D, P15L, Q17E, T22N, A64D
notes: hIgG4Pro/hIgK

Target: T1, epitope peptide Cys-CE3C long (also: biotin label, site not given here)
T1 peptide: CSVNVDKQPKYEYSL
Assay: competitive ELISA, unlabeled vs biotin-labeled peptide, antibody on anti-human IgG plate
Protocol: (§1) A diluted solution of the obtained recombinant humanized antibody, a biotin-labeled immunogen peptide, and Streptavidin-HRP (manufactured by PIERCE) were added to an anti-human IgG antibody-immobilized plate, and reacted overnight at 4° C. […] Next, a recombinant human antibody at the dilution rate, a biotin-labeled immunogen peptide, and Streptavidin-HRP (manufactured by PIERCE) were added. At the same time, a dilution series of unlabeled immunogenic peptide was added and reacted overnight at 4° C. After washing twice with ELISA wash buffer, TMB-Substrate Chromogen (manufactured by Thermo Fisher Scientific) was added to develop color, the reaction was stopped with an equal amount of 0.5N sulfuric acid, and the absorbance at 450 nm was measured. The concentration of the unlabeled peptide which attenuated the signal of the biotin-labeled peptide by half was defined as the affinity (IC50).
Mutants (h15H11-44 to 54) in which various mutations were introduced into the light chain human framework sequence of h15H11-2 (heavy chain variable region: IGHV7-4-1 Q43R, G44S, N58L, N100D, T100aD, R94P (SEQ ID NO: 33)/light chain variable region: IGKV7-3 E27D, M33L, Y36F, V78M (SEQ ID NO: 55)) produced in Example 7 were produced. Affinity evaluation was performed on the produced mutants by the method described in Example 5.

| Binder | IC50 [nM] |
| --- | --- |
| B1 | 0.51 |
| B2 | 0.5 |
| B3 | 0.5 |

Target: T1, epitope peptide Cys-CE3C long
Assay: ELISA, supernatant IgG on anti-human IgG plate, biotin-peptide + streptavidin-HRP; titer per unit IgG
Protocol: The amount of IgG in the supernatant was determined by the following method. To evaluate the amount of IgG in the supernatant, the culture supernatant was added to an anti-human IgG antibody (manufactured by Jackson) immobilized plate, after reacting at room temperature for 3 hours, washed twice with ELISA wash buffer, and HRP-labeled anti-human IgG antibody (manufactured by Jackson) was reacted at 4° C. overnight. After washing twice with ELISA wash buffer and developing color by adding TMB-Substrate Chromogen (manufactured by Thermo Fisher Scientific), the reaction was stopped with an equal volume of 0.5N sulfuric acid, and the absorbance at 450 nm was measured to calculate (A) the dilution factor of the culture supernatant at which the OD was 1.0.
The titer of IgG in the supernatant against the epitope peptide was determined by the following method. In order to evaluate the titer of IgG in the supernatant against epitope peptides, the culture supernatant was added to an anti-human IgG antibody (manufactured by Jackson) immobilized plate, reacted for 3 hours at room temperature, and then washed twice with ELISA wash buffer, and a biotin-labeled epitope peptide (Cys-CE3C long: SEQ ID NO: 13) and Streptavidin-HRP (manufactured by PIERCE) were added and reacted overnight at 4° C. After washing twice with ELISA wash buffer and developing color by adding TMB-Substrate Chromogen (manufactured by Thermo Fisher Scientific), the reaction was stopped with an equal volume of 0.5N sulfuric acid, the absorbance at 450 nm was measured to calculate (B) the dilution ratio of the culture supernatant at which the OD was 1.0.
The titer (ratio) against the epitope peptide (Cys-CE3C long: SEQ ID NO: 13) per unit IgG amount was calculated as (B)/(A).

| Binder | (B)/(A) titer (ratio) against the epitope peptide per unit IgG amount |
| --- | --- |
| B4 | 0.21 |
| B5 | 0.22 |
| B6 | 0.21 |
| B7 | 0.04 |
| B8 | 0.18 |
| B9 | 0.24 |
| B10 | 0.18 |
| B11 | 0.15 |
| B12 | 0.13 |
| B13 | 0.13 |
| B14 | 0.03 |

Target: T1, epitope peptide Cys-CE3C long
Assay: competitive ELISA, unlabeled vs biotin-labeled peptide, antibody on anti-human IgG plate
Remark: another data set of the same source
Protocol: as §1
A mutant having the heavy chain variable region represented by IGHV7-4-1 Q43R, G44S, N58L, N100D, T100aD, R94P (SEQ ID NO: 33) and the light chain variable region represented by IGKV4-1 (SEQ ID NO: 18) produced in Example 3 was produced. New mutants (h15H11-55 to 67) were produced in which various mutations were introduced into the light chain human framework sequence of the produced mutants, and affinity evaluation was performed on the produced mutants by the method described in Example 5.

| Binder | IC50 [nM] |
| --- | --- |
| B15 | 0.68 |
| B16 | 0.46 |
| B17 | 0.53 |
| B18 | 0.82 |
| B19 | 0.79 |
| B20 | 0.89 |
| B21 | 0.73 |
| B22 | 0.64 |
| B23 | 0.8 |
| B24 | 0.75 |
| B25 | 0.78 |
| B26 | 0.85 |
| B27 | 0.79 |
